Source: PMC7705670, “Structural and functional characterization of M. tuberculosis sedoheptulose- 7-phosphate isomerase, a critical enzyme involved in lipopolysaccharide biosynthetic pathway” (Scientific Reports, 2020)

Legend:
Experiment in all cases: SEC
[1] = molecular target: MtbGmhA Q173A mutant (M. tuberculosis) (UniProt P9WGG1)
[2] = molecular target: MtbGmhA S123A mutant (M. tuberculosis) (UniProt P9WGG1)
[3] = molecular target: MtbGmhA S126A mutant (M. tuberculosis) (UniProt P9WGG1)
[4] = molecular target: MtbGmhA T122A mutant (M. tuberculosis) (UniProt P9WGG1)
[5] = molecular target: the molecule itself

Molecule: MtbGmhA Q173A mutant (from UniProt P9WGG1 1-196) (enzyme)
- stoichiometry N [1]: 4

Molecule: MtbGmhA S123A mutant (from UniProt P9WGG1 1-196) (enzyme)
- stoichiometry N [2]: 4

Molecule: MtbGmhA S126A mutant (from UniProt P9WGG1 1-196) (enzyme)
- stoichiometry N [3]: 4

Molecule: MtbGmhA T122A mutant (from UniProt P9WGG1 1-196) (enzyme)
- stoichiometry N [4]: 4

B1: MtbGmhA N53G mutant (enzyme)
chain: MCTARTAEEIFVETIAVKTRILNDRVLLEAARAIGDRLIAGYRAGARVFMCGGGGSAADAQHFAAELTGHLIFDRPPLGAEALHANSSHLTAVANDYDYDTVFARALEGSARPGDTLFAISTSGNSMSVLRAAKTARELGVTVVAMTGESGGQLAEFADFLINVPSRDTGRIQESHIVFIHAISEHVEHALFAPRQ
notes: not shown: His6, N-terminal, kept
- stoichiometry N [5]: 4

B2: MtbGmhA S121G mutant (enzyme)
chain: MCTARTAEEIFVETIAVKTRILNDRVLLEAARAIGDRLIAGYRAGARVFMCGNGGSAADAQHFAAELTGHLIFDRPPLGAEALHANSSHLTAVANDYDYDTVFARALEGSARPGDTLFAIGTSGNSMSVLRAAKTARELGVTVVAMTGESGGQLAEFADFLINVPSRDTGRIQESHIVFIHAISEHVEHALFAPRQ
notes: as for B1
- stoichiometry N [5]: 4
